Read-outs that look alike come from different tables or passages of the source.
Key:
[1] = biological target: T1, aggregated A-beta(1-40) peptide (BAA) (human); experiment: BAA ELISA
T1 construct: also called A-beta peptide aggregates

[2] = biological target: T2, human A-beta(1-40) peptide, monomeric (BAM) (human, biotin at the C-terminus in capture ELISA, SPR and TR-FRET; not biotinylated where coated directly (Example 7)); experiment: BAM ELISA
T2 construct: synthetic peptide (Anaspec), TFA/HFIP treated to give monomer; also called monomeric A-beta

[3] = biological target: T1, aggregated A-beta(1-40) peptide (BAA); experiment: BAA ELISA; remark: listed apart in the source
[4] = biological target: T2, human A-beta(1-40) peptide, monomeric …; experiment: BAM ELISA; remark: listed apart in the source
[5] = biological target: T2, human A-beta(1-40) peptide, monomeric …; experiment: TR-FRET competition
[6] = biological target: T2, human A-beta(1-40) peptide, monomeric …; experiment: cell-based or functional assay
[7] = biological target: T2, human A-beta(1-40) peptide, monomeric …; experiment: ABII050 TR-FRET competition assay
[8] = biological target: T2, human A-beta(1-40) peptide, monomeric …; experiment: SPR on captured biotinylated A-beta(1-40)
[9] = biological target: T2, human A-beta(1-40) peptide, monomeric …; experiment: 42D4 TR-FRET assay (labelled ABII42D4)
[10] = biological target: T2, human A-beta(1-40) peptide, monomeric …; experiment: TR-FRET competition, labelled ABII60A10
[11] = biological target: T2, human A-beta(1-40) peptide, monomeric …; experiment: 60A10 TR-FRET assay (labelled ABII60A10)
[12] = biological target: T2, human A-beta(1-40) peptide, monomeric …; experiment: SPR, captured C-terminally biotinylated A-beta(1-40)
[13] = biological target: T3, mouse A-beta(1-40) peptide (mouse); experiment: ELISA EC50
T3 construct: Bachem peptide coated directly; also called rodent A-beta(1-40)
T3 peptide: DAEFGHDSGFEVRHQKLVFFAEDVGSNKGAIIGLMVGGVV

[14] = biological target: T4, human A-beta peptide (residues 1-24) (human); experiment: crystal structure
T4 construct: used for co-crystallisation; also called A-beta(1-24)
Experimental: The complex is concentrated by diafiltration to a concentration of 4 mg/ml. Crystallization trials are set up as sitting drop vapour diffusion experiments by mixing 200 nl of protein with 200 nl of reservoir solution against a reservoir volume of 100 μl. […] Data are collected at the beamline 6SA of the swiss light source at the Paul-Scherrer Institute in Villigen, Switzerland.

[15] = biological target: T2, human A-beta(1-40) peptide, monomeric …; experiment: ELISA, format not stated
[16] = biological target: T2, human A-beta(1-40) peptide, monomeric …; experiment: TR-FRET competition, mean IC50
[17] = biological target: T2, human A-beta(1-40) peptide, monomeric …; experiment: ABII002 TR-FRET competition assay
[18] = biological target: T2, human A-beta(1-40) peptide, monomeric …; experiment: ELISA, peptide coated at 2 µg/ml, anti-myc detection
[19] = biological target: T3, mouse A-beta(1-40) peptide; experiment: as above
[20] = biological target: T2, human A-beta(1-40) peptide, monomeric …; experiment: TR-FRET competition; labelled competitor not given
[21] = biological target: T5, soluble APP-alpha (UniProt P05067-4 18-612, limits assumed, biotinylated where used as labelled partner); experiment: TR-FRET: competition with labelled ABII320 for biotinylated sAPPalpha; non-labeled ABII035 as competitor; biotinylated sAPPalpha
T5 construct: bought; also called sAPPalpha
Experimental: Two independent experiments are performed applying a dilution series of the competitor compounds.

[22] = biological target: T6, A-beta(1-28) peptide (human); experiment: KinExA, A-beta(1-28) in solution; PEGylated ABII322
T6 construct: Anaspec peptide, solution antigen in KinExA
Experimental: The KinExA experiments are conducted with a KinExA 3000 and the KinExA Pro software (Sapidyne Instruments Inc., USA) at room temperature (ca. 21° C.). PBS with 0.02% NaN₃ is used as running buffer. For all experiments, antigen is serially diluted into PBS with 0.1% BSA and 0.02% NaN₃ having a constant VHH concentration. The mixtures of antigen and VHH are incubated for 24 h at room temperature prior to measurement. The flow rate of the samples and the labeling antibody for all experiments is 0.25 ml/min.
This antibody is used at a volume of 500 μl and a concentration of 0.5 μg/ml in PBS with 0.1% BSA and 0.02% NaN₃.
The equilibrium titration data are fit to a 1:1 binding model using KinExA Pro software Version 1.0.3 (Sapidyne Instruments Inc., USA). […] The sample volume is 5 ml each. […] The sample volume is 11 ml each.

[23] = biological target: T7, pGlu-A-beta(1-28), C-terminally biotinylated (human, pyroglutamate formed from the glutamate at position 3 (N-terminus); biotin at the C-terminus); experiment: SPR on captured C-terminally biotinylated pGlu-A-beta(1-28), 1:1 model
T7 construct: printed as pGlu-A-beta(1-28), while the text says that the first two N-terminal residues are missing; range 3-28 is my reading; also called pyroglutamyl-Abeta
T7 sequence (peptide, as listed by the source): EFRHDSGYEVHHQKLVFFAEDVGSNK
Text: Association and dissociation curves can be fitted using a 1:1 interaction model and an accurate KD value can be determined.

T4 sequence (peptide, as listed by the source): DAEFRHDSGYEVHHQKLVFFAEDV
T6 sequence (peptide, as listed by the source): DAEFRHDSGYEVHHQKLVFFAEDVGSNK
T5 sequence (P05067 other isoform, or with tags, fused parts or gaps limits assumed): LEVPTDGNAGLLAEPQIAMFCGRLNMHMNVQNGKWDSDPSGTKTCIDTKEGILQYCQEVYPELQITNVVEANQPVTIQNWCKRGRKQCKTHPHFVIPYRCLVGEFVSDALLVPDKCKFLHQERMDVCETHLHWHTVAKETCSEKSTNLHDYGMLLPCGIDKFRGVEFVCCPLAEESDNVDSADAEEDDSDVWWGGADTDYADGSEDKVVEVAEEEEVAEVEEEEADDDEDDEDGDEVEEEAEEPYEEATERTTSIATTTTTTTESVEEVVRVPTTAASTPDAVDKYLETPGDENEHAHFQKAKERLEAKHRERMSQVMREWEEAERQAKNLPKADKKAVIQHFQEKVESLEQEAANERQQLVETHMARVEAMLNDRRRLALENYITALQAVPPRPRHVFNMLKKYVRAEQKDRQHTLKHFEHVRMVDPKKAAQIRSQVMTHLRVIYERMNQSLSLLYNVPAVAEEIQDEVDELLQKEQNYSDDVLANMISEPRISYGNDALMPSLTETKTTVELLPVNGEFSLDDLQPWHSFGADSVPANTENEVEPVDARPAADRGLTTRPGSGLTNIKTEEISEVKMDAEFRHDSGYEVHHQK

B1: Fab fragment of monoclonal antibody m266 (Fab, V domains shown)
VH: EVKLVESGGGLVQPGGSLKLSCAVSGFTFSRYSMSWVRQTPEKRLELVAQINSVGNSTYYPDTVKGRFTISRDNAEYTLSLQMSGLRSDDTATYYCASGDYWGQGTTLTVSS
VL: DVVMTQTPLSLPVSLGDQASISCRSSQSLIYSDGNAYLHWFLQKPGQSPKLLIYKVSNRFSGVPDRFSGSGSGTDFTLKISRVETEDLGVYFCSQSTHVPWTFGGGTKLEIK
notes: also called Fab266; m266Fab
[1]
  EC50: 1.8 nM
[2]
  EC50: 1.8 nM
[3]
  EC50: 1.8 nM
[4]
  EC50: 1.8 nM
[5]
  IC50: 0.52 nM
[6]
  Aggregation inhibition (% inhibition at 26 µM): 82%
[7]
  IC50: 0.52 nM
[8]
  koff: 4e-05 s⁻¹
[9]
  IC50: > 1000 nM
[10]
  IC50: 0.52 nM
[11]
  IC50: 2.3 nM
[12]
  Kd: 0.3 nM

B2: ABII035 (VHH)
VHH: EVQLLESGGGLVQPGGSLRLSCVHSGPTFRTDTMGWFRQAPGKGREFVAAVTWNSGRINYADSVKGRFTISRDNSKNTAYLQMNSLRPEDTAVYYCAAHRFVVGGNRVEDWRYWGQGTLVTVSS
notes: humanized variant of ABII002
[13]
  fold difference mouse against human A-beta: 2.2 fold
[14]
  binding result: binds
[15]
  fold difference of EC50 against the 2D2 and 2G6 VHHs: > 50 fold
[6]
  Aggregation inhibition (% inhibition at 26 µM): 54%
[16]
  IC50: 4 nM
[17]
  IC50: 3.5 nM
[18]
  EC50: 2.5 nM
[19]
  EC50: 5.7 nM
[20]
  IC50: 4 nM
[21]
  IC50: 25.6 nM

B3: ABII322-PEG40 (designed binder)
chain: VQLLESGGGLVQPGGSLRLSCAASGRTFNNYNMGWFRQAPGKGREFVAAVSRSGVSTYYADSVKGRFTISRDNSKNTVYLQMNSLRPEDTAVYYCAAAYRGTAINVRRSYSSWGQGTLVTVSSGGGSGGGGSGGGGCGGGGSGGGGSGGGEVQLLESGGGLVQPGGSLRLSCVHSGPTFRTDTMGWFRQAPGKGREFVAAVTWNSGRINYADSVKGRFTISRDNSKNTAYLQMNSLRPEDTAVYYCAAHRFVVGGNRVEDWRYWGQGTLVTVSS
modifications: PEG40 on the Cys at position 14 of the 27GS linker
notes: 059-27GSC-035; also called PEGylated ABII322 VHH construct; biparatopic PEGylated VHH ABII322
[17]
  IC50: 0.14 nM
[7]
  IC50: 0.17 nM
[22]
  Kd: 0.0006 nM
[23]
  Kd: 1 nM

— patent publication US20120058118A1 (Boehringer Ingelheim, published 2012)
